Molecular target: HIV-1 clade C 96ZM651 gp140 Env trimer (HIV-1 clade C isolate 96ZM651)
Experiment: native gel or EMSA

HIV-1 clade C 96ZM651 gp140 Env trimer (domain or fragment)
stoichiometry N: 3

— PMC6930178
